How the values were obtained:
Neto1-ΔCUB2-HA = Neto1-ΔCUB2-HA (UniProt Q8R4I7); experiment: co-IP
Neto2-ΔCUB2-HA = Neto2-ΔCUB2-HA (UniProt Q8BNJ6); experiment: co-IP

In the case of “FLAG-GluK2 (from UniProt P42260 32-908) (receptor)”, the amount of GluK2 co-immunoprecipitated, percent of full length Neto1 (Neto1-ΔCUB2-HA) is reported as 39% and the amount of GluK2 co-immunoprecipitated, percent of full length Neto2 (Neto2-ΔCUB2-HA) is reported as 33%.
